Assay results from patent US20130281317A1 (ALLBERT EINSTEIN COLLEGE OF MEDICINE OF YESHIVA UNIVERSITY, published 2013).

Target: bovine serum albumin (BSA) (bovine, UniProt P02769 25-607)
Test: phage ELISA, coated wells
Protocol: Wells of Costar EIA/RIA high-binding plates were coated with ˜400-600 μg of antigen per well in phosphate-buffered saline (PBS) pH 7.0 at room temperature for 1 hr. The well solutions were decanted, and unbound well sites were blocked with PBS-T/0.5% (w/v) BSA for 1 hr. The wells were washed with PBS-T, phage solutions added and allowed to bind for 30 mins The phage solutions were decanted, the wells washed 5-7 times with PBS-T. Next, a solution containing 1:2500 dilution of anti-M13/HRP conjugate (GE Healthcare, Piscataway, N.J.) was added and allowed to bind for 30 mins. The wells were washed with PBS-T ˜5-7 times and developed using 3,3′,5,5′-tetramethylbezidine (TMB) substrate (Sigma). The ELISA signal was quantified either by direct measurement of blue color absorbance (OD650) or by quenching with sulfuric acid after 10-15 mins and determining the OD at 450 nm.

Sequence of bovine serum albumin (BSA) (P02769 25-607 limits assumed): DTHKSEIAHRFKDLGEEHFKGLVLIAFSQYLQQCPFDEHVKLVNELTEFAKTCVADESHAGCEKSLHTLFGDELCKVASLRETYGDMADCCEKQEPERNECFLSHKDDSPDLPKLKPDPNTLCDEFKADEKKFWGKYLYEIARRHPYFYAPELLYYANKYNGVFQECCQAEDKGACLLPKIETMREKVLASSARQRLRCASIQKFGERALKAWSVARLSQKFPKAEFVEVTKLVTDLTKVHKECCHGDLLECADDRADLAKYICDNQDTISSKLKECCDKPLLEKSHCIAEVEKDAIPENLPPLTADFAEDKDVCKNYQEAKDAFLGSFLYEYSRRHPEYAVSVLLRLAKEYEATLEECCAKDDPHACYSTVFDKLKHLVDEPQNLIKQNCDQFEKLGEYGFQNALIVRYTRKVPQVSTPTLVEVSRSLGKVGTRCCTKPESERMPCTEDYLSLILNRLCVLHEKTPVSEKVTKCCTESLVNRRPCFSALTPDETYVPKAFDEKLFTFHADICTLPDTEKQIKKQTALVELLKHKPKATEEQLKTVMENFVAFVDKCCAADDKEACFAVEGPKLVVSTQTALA

B1: 2G12 (Fab)2 fragment displayed bivalently on M13 phage from p2G12-Fab2zip (WT) (Fab, V domains shown, not shown: a dimerising Fc or GST; large carriers)
VH: EVQLVESGGGLVKAGGSLILSCGVSNFRISAHTMNWVRRVPGGGLEWVASISTSSTYRDYADAVKGRFTVSRDDLEDFVYLQMHKMRVEDTAIYYCARKGSDRLSDNDPFDAWGPGTVVTVSP
VL: VVMTQSPSTLSASVGDTITITCRASQSIETWLAWYQQKPGKAPKLLIYKASTLKTGVPSRFSGSGSGTEFTLTISGLQFDDFATYHCQHYAGYSATFGQGTRVEIKR
notes: also called 2G12-Fab-biv phage; WT 2G12 clone
- binding result: no binding
